Data on 4 molecules can be found in PMC9588774 (Cell Death & Disease, 2022).

For orientation: koff means a measure of how fast the partners let go of each other. A high value points to a short-lived complex. The term Kd denotes the equilibrium constant for the complex coming apart. Read a low Kd as a tighter complex. The term stoichiometry N denotes a count of units in the complex or per binding partner.

The target of data set [1] is T1, CD95L (FasL, Peprotech) (UniProt P48023 130-281).
T1 chain: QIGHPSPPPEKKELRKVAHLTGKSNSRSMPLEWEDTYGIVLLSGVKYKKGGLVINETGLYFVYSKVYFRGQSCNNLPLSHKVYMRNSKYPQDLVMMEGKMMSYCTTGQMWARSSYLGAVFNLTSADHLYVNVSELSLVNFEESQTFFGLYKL
The experiment in a line: SPR.

The target of data set [2] is CD95L (FasL, Peprotech) (UniProt P48023). The experiment in a line: SPR; Biacore T200, 25 °C; CM5 chip coated with 140 RU of FasL (Peprotech); sCD95 or sCD95-Δ58 injected in triplicate at 25 µl/min in 10 mM Na2HPO4, 150 mM NaCl, 3 mM EDTA, 0.05% Tween-20, pH 7.4; Langmuir 1:1 fit, KD = kd/ka. Background: SPR reads the build-up and loss of mass on a sensor chip optically.

Data set [3] concerns the molecule itself. The experiment in a line: SEC; supernatants of sCD95-secreting HEK/293T cells on Superdex 200 Prep Grade (XK 16/70) in PBS, 1 mL/min, 1 mL fractions; CD95 in each fraction dosed by ELISA; native molecular markers. (In gel filtration, larger molecules generally elute earlier.)
In data set [4] the target is soluble full-length extracellular domain of CD95 (sCD95). The data set is described as above.

B1: soluble Δ58-truncated extracellular domain of CD95 (sCD95-Δ58) (domain or fragment)
chain: CHKPCPPGERKARDCTVNGDEPDCVPCQEGKEYTDKAHFSSKCRRCRLCDEGHGLEVEINCTRTQNTKCRCKPNFFCNSTVCEHCDPCTKCEHGIIKECTLTSNTKCKEEGSRSNL
Regarding B1, the koff in the data set with CD95L (FasL, Peprotech) [1] worked out at 0.0011 s⁻¹. This molecule also yielded a Kd with CD95L (FasL, Peprotech) [2] of 2.5 nM.

B2: soluble extracellular domain of CD95 with K33G (sCD95-K33G) (domain or fragment, UniProt P25445 17-173, looked up)
chain: RLSSKSVNAQVTDINSGGLELRKTVTTVETQNLEGLHHDGQFCHKPCPPGERKARDCTVNGDEPDCVPCQEGKEYTDKAHFSSKCRRCRLCDEGHGLEVEINCTRTQNTKCRCKPNFFCNSTVCEHCDPCTKCEHGIIKECTLTSNTKCKEEGSRSN
notes: CD95 (Fas), a.a; 17-173 of the 335-residue precursor, AAG codon (K) replaced by GGG (G); pcDNA3.1(+); also called soluble K33G CD95 mutant; source: HEK/293T, transfected (calcium/phosphate), secreted into serum-deprived Opti-MEM; supernatant ultracentrifuged
Consider B2, for which the “stoichiometry N” value in data set [3] worked out at 3.

B3: soluble Δ36-truncated extracellular domain of CD95 (sCD95-Δ36) (domain or fragment, UniProt P25445 37-173, looked up)
chain: LRKTVTTVETQNLEGLHHDGQFCHKPCPPGERKARDCTVNGDEPDCVPCQEGKEYTDKAHFSSKCRRCRLCDEGHGLEVEINCTRTQNTKCRCKPNFFCNSTVCEHCDPCTKCEHGIIKECTLTSNTKCKEEGSRSN
notes: CD95 (Fas), a.a; 37-173 of the 335-residue precursor; pcDNA3.1(+); also called Δ36-CD95; MMP7-cleaved form; source: HEK/293T, transfected (calcium/phosphate), secreted into serum-deprived Opti-MEM; supernatant ultracentrifuged
As to B3, the “stoichiometry N” value in data set [3] stood at 2.

B4: soluble full-length extracellular domain of CD95 (sCD95) (domain or fragment)
chain: RLSSKSVNAQVTDINSKGLELRKTVTTVETQNLEGLHHDGQFCHKPCPPGERKARDCTVNGDEPDCVPCQEGKEYTDKAHFSSKCRRCRLCDEGHGLEVEINCTRTQNTKCRCKPNFFCNSTVCEHCDPCTKCEHGIIKECTLTSNTKCKEEGSRSNL
modifications: N-glycosylated
B4 registered a koff in the data set with CD95L (FasL, Peprotech) [1] of 0.0011 s⁻¹. Moreover, in data set [4], the percent of homotrimer came to 27%, the percent of monomer was found to be 20%, the percent of the protein in the dimer fractions came to 44% and the stoichiometry N came out at 2. In the data set with CD95L (FasL, Peprotech) [2], this molecule had a Kd of 2 nM.
